Experiments:
P. aeruginosa P8 = assay: Mouse model of acute lung infection, P. aeruginosa P8; format: in vivo, Pseudomonas aeruginosa; details: for Lowest active concentration tested: lowest concentration tested with which the treated mice survived to 24 h; for Corresponding molarity: molarity of lowest active concentration tested; for reduction of bacterial load in lung: 3 mg ml^−1 intranasal 1 h post-infection, culled 4.5 h post-infection (FIG. 1c); for reduction of bacterial numbers in lung: C57/BL6 mice, 3 mg ml^−1 intranasal 6 h pre-infection, culled 4 h post-infection (FIG. 1a)
Experimental: Study design. […] For all experiments 6 week-old, female, murine pathogen free C57/BL6 mice weighing 15-21 g were used (Charles Rivers Laboratories, UK). All mice received food and water ad libitum and were housed in groups during the experiments. Power calculations were used to predetermine sample size (n=6, for all treatment experiments). Mice were culled when required as determined by a scoring system or culled at the pre-determined 24 h time point. All mice, including outliers were included in the statistical analysis. Experiments were either carried out once only or repeated once (defined for each experiment).
(§1) Model of acute lung infection. Female C57/BL6 mice were inoculated intranasally with 25 μl of bacterial culture containing approximately 10^7 CFU of the selected P. aeruginosa strain^36. Antibiotic treatments were administered at either 6 h pre-infection or 1 h post-infection and were administered only once. Pyocins or tobramycin dissolved in PBS were administered via intranasal administration as described above. Two different end-points were used in these experiments. In order to determine a reduction in the bacterial load of the lungs compared to the untreated controls, all mice in the experiment were culled by carbon dioxide asphyxiation at the same time; 4-6 h post infection. To determine if mice could survive infection after pyocin or tobramycin treatment, mice were monitored closely, culled by carbon dioxide asphyxiation when required as determined by a scoring system or culled at the pre-determined 24 h time point. Uninfected mice, treated with pyocins, were used as controls in the first series of experiments in order to ensure no adverse effects from pyocin treatment. These controls were stopped in later experiments in order to reduce the number of animals used, once it was clear that the pyocins were not harmful. For CFU determination, lungs were removed aseptically and kept on ice in 750 μl of PBS until homogenised. Serial 10-fold dilutions of the homogenised lung were plated on Pseudomonas selective agar (20 g peptone, 1.5 g K2HPO4, 1.5 g MgSO4·7H2O, 10 ml glycerol, 15 g agar, 0.025 g Irgasan per litre) and incubated at 37° C. for 24 h and then room temperature for 24 h before the colonies were counted.

P8AP41T [1] = assay: Pyocin sensitivity in vitro (spot tests) of strain P8AP41T; format: cell-based, Pseudomonas aeruginosa
Experimental: Pyocin sensitivity assays: overlay spot plate method. Soft agar overlay spot plates were performed using the method of ^35. 150 μl of test strain culture at OD600 nm=0.6 was added to 6 ml of 0.8% soft agar and poured over an LB agar plate. 5 μl of bacteriocin, lung homogenate or blood at varying concentrations was spotted onto the plates and incubated for 24 h at 37° C.
(§2) In order to determine if pyocin tolerance or resistance was acquired upon pyocin treatment in vivo, viable bacteria recovered from mice that survived infection to the 24 h end-point, in all experiments discussed in this work, were tested for pyocin susceptibility. From these experiments no pyocin resistant colonies were isolated. […] Importantly, sensitivity to pyocins S5 and L1 were unaffected in vitro in this pyocin AP41-tolerant strain (FIG. 3a) and this was also shown to be the case in vivo when mice were infected with P8AP41T.

P8AP41T [2] = assay: Mouse model of acute lung infection, AP41 tolerant strain P8AP41T; format: in vivo, Pseudomonas aeruginosa; details: 3 mg ml^−1 1 h post-infection; for bacterial numbers in lung homogenates: 24 h (FIG. 3b); for survival: endpoint 24 h, PBS controls culled 6 h post-infection (FIG. 3b)
Experimental: as §1, §2

P. aeruginosa P17 = assay: Mouse model of acute lung infection, P. aeruginosa P17; format: in vivo, Pseudomonas aeruginosa
Experimental: as §1
(§3) Since strains of P. aeruginosa are phenotypically diverse, we tested the efficacy of the pyocins against three additional isolates: P. aeruginosa P17 and P. aeruginosa P5 (mucoid), both from cystic fibrosis patients and P. aeruginosa E2, an environmental isolate. Pyocin S2 was not active against P. aeruginosa P5 or P. aeruginosa E2 in vitro therefore was not used to treat these strains in vivo and similarly pyocin L1 was not used against P. aeruginosa P17. […] Lung homogenates from P. aeruginosa E2-infected AP41-treated mice contained high levels of viable bacteria, reduced only 10-fold relative to control mice (Table 1). […] Thus, pyocins show strong efficacy against diverse strains of P. aeruginosa with pyocin S5 treatment displaying the largest effect on reducing bacterial load.

[3] = system: collection of diverse environmental and clinical isolates; assay: Activity against a collection of diverse environmental and clinical isolates; format: cell-based, Pseudomonas aeruginosa
[4] = system: P. aeruginosa P5 (mucoid); assay: Mouse model of acute lung infection, P. aeruginosa P5; format: in vivo, Pseudomonas aeruginosa; details: for survival / protection: pyocin 3 mg ml^−1, endpoint 24 h, infected controls culled at 4.5 h; for bacterial count in lung, P5: pyocin 3 mg ml^−1, treated mice survived to 24 h, no treatment 1.7 × 10^5 CFU/lung
Experimental: as §1, §3

P. aeruginosa E2 = assay: Mouse model of acute lung infection, P. aeruginosa E2; format: in vivo, Pseudomonas aeruginosa; details: for survival / protection: pyocin 3 mg ml^−1, endpoint 24 h, infected controls culled at 5.5 h
Experimental: as §1, §3

P. aeruginosa PA01 = assay: Mouse model of acute lung infection, P. aeruginosa PA01; format: in vivo, Pseudomonas aeruginosa
Experimental: as §1, with “Uninfected mice, treated with pyocins, were used as controls in the first series of experiments in order to ensure no adverse effects from pyocin treatment. These controls were stopped in later experiments in order to reduce the number of animals used, once it was clear that the pyocins were not harmful. For CFU determination, lungs were removed aseptically and kept on ice in 750 μl of PBS until homogenised.” left out
A similar experiment was performed using pyocin SD2. […] The bacterial load of the lungs was determined and control mice had approx 2×10^5 CFU/lung, 6 h after infection.

Molecule	Lowest active concentration tested (P. aeruginosa P8) [µg/mL]	Corresponding molarity (P. aeruginosa P8) [µM]	bacterial numbers in lung homogenates (P8AP41T [2])	survival (P8AP41T [2])	survival / protection [4]	bacterial count in lung, P5 [4]	reduction of bacterial load in lung (P. aeruginosa P8)	reduction of bacterial numbers in lung (P. aeruginosa P8) [fold]	survival / protection (P. aeruginosa E2)	also measured
NC[C@H]1O[C@H](O[C@H]2[C@H](O)[C@@H](O[C@H]3O[C@H](CO)[C@@H](O)[C@H](N)[C@H]3O)[C@H](N)C[C@@H]2N)[C@H](N)C[C@@H]1O [Tobramycin, tobramycin, reference compound]	300	641	–	–	–	–	–	–	–	survival (P. aeruginosa P8; 300 μg ml^−1, 1 h post-infection (FIG. 2b)): survived to 24 h; bacterial counts compared to the PBS controls (P. aeruginosa P8; 300 μg ml^−1, 24 h post-infection (FIG. 2b)): significantly reduced the bacterial counts
Pyocin AP41: S-type pyocin, SEQ ID NO: 18; effector has DNase activity (protein, listed as Pseudomonas aeruginosa) MSDVFDLGSMTTVATATGQYSFYTPPPPTPIPYLTYIARPGINKFDLPEGAKIKDLIKRYQYIGSQIPAAIMIRGVQEEIKKSTNTALANVGAIVDGELAYLASQKKEKLNPAEATPLQMASAEKAAAVELLASKQKELADARTIANAFFGYDPLTVNYVNVMNEIYGRREDKDFSFDNWSKSYSAAQKIRLIEAKISVLNSRSSALDGKVAELTRLQRLEDAQHAAEAARQTEAERLAQEQRQAEARRQAEEARRQAEAQRQAELQRLAEAEAKRVAEAEKKRQDEINARLQAIVVSESEAKRIEEIYKRLEEQDKISNPTVTTPPAVDAGSRVDDALAHTGTRVTSGGETGATGGSGRDVDTGTGQGGITARPVDVGSVSIPDRRDPKIPDQPRRDLGSLVPTFPDFPTFPSFPGVGVPAAAKPLIPAGGGAASVSRTLKTAVDLLSVARKTPGAMLGQVAAVVATMAVSSFWPKLNNGERQASFAIPVAELSPPLAVDWQAIAAAKGTVDLPYRLKTLNVDGSIQIIAVPTEPGSAAVPVRALTLDSASGTYKYTTTGPGGGTILVTPDTPPGQIDPSSSTPAVPRGPLIMPGTLLIPKEPQIESYPELDQREFNDGIYVYPEDSGIPPLYIVYRDPRDEPGVATGNGQPVTGNWLAGASQGDGVPIPSQIADQLRGKEFKSWRDFREQFWMAVSKDPSALENLSPSNRYFVSQGLAPYAVPEEHLGSKEKFEIHHVVPLESGGALYNIDNLVIVTPKRHSEIHKELKLKRKEK	30	0.319	significantly reduced bacterial numbers	survived until the endpoint of the experiment at 24 h	successful	No colonies	~130 fold	~650	failed to afford protection	increased tolerance of isolate P8AP41T (P8AP41T [1]; single isolate from pyocin AP41 (3 mg ml^−1 post-infection) treated bacteria): approximately 1000 fold; susceptibility of P8AP41T during infection (P8AP41T [1]; strain recovered from untreated control mice (P8AP41T*), FIG. 3a): remained tolerant; bacterial count in lung, P17 (P. aeruginosa P17; 1 mouse that coughed up the treatment, culled at 4 h post-infection): ^+1 mouse coughed up AP41 treatment and was culled at 4 h post-infection, bacterial count 1.3 × 10^5 CFU/lung.; survival / protection (P. aeruginosa P17; pyocin 3 mg ml^−1, endpoint 24 h, infected controls culled at 4 h): five out of six; bacterial count in lung, P17 (P. aeruginosa P17; pyocin 3 mg ml^−1, treated mice survived to 24 h, no treatment 4.4 × 10^5 CFU/lung): No colonies; strains against which active [3]: 87%; survival (P. aeruginosa P8; 300 μg ml^−1 and 30 μg ml^−1 (both concentrations), endpoint 24 h post-infection): survived until the endpoint of the experiment at 24 h post-infection; reduction of viable bacteria in lung homogenates relative to control mice (P. aeruginosa E2; pyocin 3 mg ml^−1, culled at 5.5 h post-infection): 10 fold; bacterial count in lung, E2 (P. aeruginosa E2; pyocin 3 mg ml^−1, mice culled at same time as control (5.5 h post-infection)): 1.3 × 10^4 CFU/lung
Pyocin L1: lectin-like pyocin, SEQ ID NO: 24; receptor believed to be common polysaccharide antigen of LPS (protein, listed as Pseudomonas aeruginosa) MASSLAPRQVIRDGQFITSPNGKYKLVMQADGNLVLYEDGTKPIWNTTPVGPGAKAVMEFNLNLYNKAGQVAWSSNVYTAYLFEEFKDEAYLNLQDDGDFGIFSDEAKWGSIVLSRPEVGVKNKIIPTGTVMVPGTEYINGNYRLAFQGDGNLVIYQINPQVVIWATYTMGADRAVVQEDGNFVIYKGTTALWHTHTATGMPAYLKFTNTGKLFLSQPTLLWTLKRGSLSKPPKVIPGQHGPLDTTPIWSWPHDYP	30	1.06	significantly reduced bacterial numbers	survived until the endpoint of the experiment at 24 h	survived until the 24 h endpoint	40 CFU/lung	approximately 20 fold	~1500	survived until the 24 h endpoint	sensitivity of the pyocin AP41-tolerant strain in vitro (P8AP41T [1]; spot tests, FIG. 3a): unaffected; mice culled at 6 h post-infection due to the severity of symptoms (P. aeruginosa P8; 30 μg ml^−1, six mice): three of the six; survival (P. aeruginosa P8; 300 μg ml^−1, endpoint 24 h post-infection): survived until the endpoint of the experiment at 24 h post-infection; bacterial count in lung, E2 (P. aeruginosa E2; pyocin 3 mg ml^−1, treated mice survived to 24 h, no treatment 1.5 × 10^5 CFU/lung): No colonies
Pyocin SD2: S-type pyocin, SEQ ID NO: 7; targeting domain binds LPS common polysaccharide antigen (protein, listed as Pseudomonas aeruginosa) MAVNDYEPGSMVITHVQGGGRDIIQYIPARSSYGTPPFVPPGPSPYVGTGMQEYRKLRSTLDKSHSELKKNLKNETLKEVDELKSEAGLPGKAVSANDIRDEKSIVDALMDAKAKSLKAIEDRPANLYTASDFPQKSESMYQSQLLASRKFYGEFLDRHMSELAKAYSADIYKAQIAILKQTSQELENKARSLEAEAQRAAAEVEADYKARKANVEKKVQSELDQAGNALPQLTNPTPEQWLERATQLVTQAIANKKKLQTANNALIAKAPNALEKQKATYNADLLVDEIASLQARLDKLNAETARRKEIARQAAIRAANTYAMPANGSVVATAAGRGLIQVAQGAASLAQAISDAIAVLGRVLASAPSVMAVGFASLTYSSRTAEQWQDQTPDSVRYALGMDANKLGLTSSVNLSAVAKAGGTVDLPMRLTNEARGNTTTLSVVSTDGVSVPKAAPVRMAAYNATTGLYEVTVPSTTAEAPPLILTWTPASPPGNQNPSSTTPVIPKPVPVYEGAALTPLKTGPESYPGMLLDLNDLIVIFPADSGVKPVYVMLSSPLDSGIFTRRQLQKKFDSHKYDFGLGEKSANNGTLAEFRDKILEHLADPATVEKGTYHSEVNSKVHYNARTNIVVIIGEDGMFVSGWRIEPGTDQYNFYMKNEVL	–	–	–	–	–	–	–	–	–	bacterial load of the lungs (P. aeruginosa PA01; 3 mg ml^−1 1 h post-infection, 24 h post-infection, control approx 2×10^5 CFU/lung at 6 h): no colonies or 10; survival (P. aeruginosa PA01; C57/BL6 mice, 3 mg ml^−1 intranasal 1 h post-infection, endpoint 24 h (FIG. 7)): survived to the endpoint of the experiment at 24 h

Reference: patent US12162911B2, “Pulmonary administration of pyocins for treating bacterial respiratory infections” (priority 2014, dated 2024)
